According to paper PMC4227728:

How the values were obtained:
[1] = target: ErbB2 (as used in the ErbB2 ELISA of the Fab mutants) (human) (UniProt P04626); experiment: ELISA
[2] = target: ErbB2 ECD labeled with an infrared dye (human) (UniProt P04626); experiment: cross-linking

Row | Substance | fold reduction of binding against the WT Fab [1] [fold] | percent of ErbB2 ECD cross-linked [2] [%]
1 | Herceptin Fab-AcrK103 | 20 | –
2 | Herceptin Fab-VSF92 | – | 80
